The results in this text go back to patent publication US20250026849A1 (ARCELLX, published 2025).

Numbering of substitutions follows the chain as printed.

The chains are these.
T1: CD123 (Homo sapiens (Human), UniProt P26951 19-305, limits assumed)
T1 construct: The CD123 construct used in the ELISA is not described; also called CD123-Signal
T1 sequence: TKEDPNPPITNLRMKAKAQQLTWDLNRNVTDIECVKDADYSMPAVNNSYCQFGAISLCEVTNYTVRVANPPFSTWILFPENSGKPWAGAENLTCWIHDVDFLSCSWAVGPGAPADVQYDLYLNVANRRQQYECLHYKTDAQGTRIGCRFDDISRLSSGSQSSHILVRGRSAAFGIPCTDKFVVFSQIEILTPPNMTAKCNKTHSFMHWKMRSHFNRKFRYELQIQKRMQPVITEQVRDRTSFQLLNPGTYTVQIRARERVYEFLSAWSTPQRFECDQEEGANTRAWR

B1: D domain of SEQ ID NO: 368 (designed binder)
chain: MGSWDEFYYRLEAIEMRLGALGGSEAELAAFEKEIAAFESELQAYKGKGNPEVEELRHYAAQIRHMLQAYRHN
B2: D domain of SEQ ID NO: 369 (designed binder)
chain: B1 chain with D5E, Y9D, E15Y, M16N, E55V, H58E, Q62D, H65E
B3: D domain of SEQ ID NO: 360 (designed binder)
chain: MGSWTEFVWRLEAIWDRLDALGGSEAELAAFEKEIAAFESELQAYKGKGNPEVEVLREDAAVIRHFLQAYRHN
B4: D domain of SEQ ID NO: 422 (designed binder)
chain: MGSWWEFIWRLEAIEQRLWALGGSEAELAAFEKEIAAFESELQAYKGKGNPEVEVLRSRAADIRTDLQAYRHN
B5: D domain of SEQ ID NO: 407 (designed binder)
chain: MGSWEEFFTRLDAINERLEALGGSEAELAAFEKEIAAFESELQAYKGKGNPEVEMLRYEAAEIRHMLQAYRHN
B6: D domain of SEQ ID NO: 433 (designed binder)
chain: MGSWFEFWGRLEAIESRLKALGGSEAELAAFEKEIAAFESELQAYKGKGNPEVEELREHAAWIRAYLQAYRHN
B7: D domain of SEQ ID NO: 398 (designed binder)
chain: MGSWHEFDQRLWAIEERLWALGGSEAELAAFEKEIAAFESELQAYKGKGNPEVETLRLYAALIRHDLQAYRHN
B8: D domain of SEQ ID NO: 408 (designed binder)
chain: MGSWYEFSNRLDAIGERLWALGGSEAELAAFEKEIAAFESELQAYKGKGNPEVEILRHQAAEIRWFLQAYRHN
B9: D domain of SEQ ID NO: 410 (designed binder)
chain: MGSWVEFWDRLWAIDYRLFALGGSEAELAAFEKEIAAFESELQAYKGKGNPEVEALRDEAAWIREELQAYRHN
B10: D domain of SEQ ID NO: 424 (designed binder)
chain: B9 chain with V5S, W8E, Y16Q, A55W, D58A, E59Y, W62D, E65W
B11: D domain of SEQ ID NO: 465 (designed binder)
chain: B9 chain with V5F, W8Y, D9E, W12D, D15N, Y16W, D58G, W62A, E66D
B12: D domain of SEQ ID NO: 417 (designed binder)
chain: B9 chain with V5D, W8E, D9E, W12F, Y16E, F19W, D58Y, E59L, W62D
B13: D domain of SEQ ID NO: 425 (designed binder)
chain: B9 chain with V5T, D9E, W12N, Y16E, A55W, D58L, E59Y, W62E, E65S
B14: D domain of SEQ ID NO: 466 (designed binder)
chain: B9 chain with V5N, W8E, W12D, D15W, Y16W, D58V, W62F, E65T, E66M
B15: D domain of SEQ ID NO: 429 (designed binder)
chain: MGSWVEFEERLEAIEERLFALGGSEAELAAFEKEIAAFESELQAYKGKGNPEVEWLRDDAANIRHWLQAYRHN
B16: D domain of SEQ ID NO: 411 (designed binder)
chain: B9 chain with W8V, Y16E, F19D, A55F, D58T, E59W, E66D
B17: D domain of SEQ ID NO: 423 (designed binder)
chain: B9 chain with V5S, W8Y, D15E, Y16E, A55Y, D58Y, E59Y, W62E
B18: D domain of SEQ ID NO: 428 (designed binder)
chain: B15 chain with E12W, E15D, F19G, D59W, N62D, H65W
B19: D domain of SEQ ID NO: 427 (designed binder)
chain: B5 chain with E5W, F8E, T9N, D12W, N15E, Y58N, E59Y, H65W, M66E
B20: D domain of SEQ ID NO: 470 (designed binder)
chain: MGSWWLFKDDLAEIKYWLEALGGSEAELAFFEDDIAEFERGLQIYKGKGNPEVEALRKEAAAIRDELQAYRHN
B21: D domain of SEQ ID NO: 406 (designed binder)
chain: MGSWFEFNYRLGAIEDRLWALGGSEAELAAFEKEIAAFESELQAYKGKGNPEVEMLRQIAAEIREFLQAYRHN
B22: D domain of SEQ ID NO: 418 (designed binder)
chain: MGSWEEFWERLDAIDTRLWALGGSEAELAAFEKEIAAFESELQAYKGKGNPEVEVLRNDAADIREPLQAYRHN
B23: D domain of SEQ ID NO: 421 (designed binder)
chain: B4 chain with W5T, I8Y, W9N, E12D, E15D, V55M, S58E, R59Y
B24: D domain of SEQ ID NO: 419 (designed binder)
chain: B22 chain with E5M, D12E, T16M, V55Y, N58D, D62V, E65D, P66D
B25: D domain of SEQ ID NO: 457 (designed binder)
chain: MGSWVEFYIRLDAIYVRLMALGGSEAELAAFEKEIAAFESELQAYKGKGNPEVEKLRSYAANIRQELQAYRHN
B26: D domain of SEQ ID NO: 464 (designed binder)
chain: B25 chain with V5S, I9L, V16D, M19D, K55W, S58K, Y59T, Q65E
B27: D domain of SEQ ID NO: 459 (designed binder)
chain: B25 chain with Y8I, I9Y, V16D, M19E, K55V, S58R, Q65N
B28: D domain of SEQ ID NO: 462 (designed binder)
chain: B25 chain with V5F, I9M, V16D, M19T, K55R, S58T, Y59F, Q65K
B29: D domain of SEQ ID NO: 458 (designed binder)
chain: B25 chain with V5Y, Y8S, I9M, V16D, K55Q, S58G, Q65N
B30: D domain of SEQ ID NO: 463 (designed binder)
chain: B25 chain with V5Y, Y8D, I9Y, V16D, M19A, K55R, S58K, Y59W, Q65E
B31: D domain of SEQ ID NO: 460 (designed binder)
chain: B25 chain with V5I, Y8E, I9V, V16N, M19A, K55R, S58R, Q65H
B32: D domain of SEQ ID NO: 461 (designed binder)
chain: B25 chain with V5F, I9D, V16M, M19I, K55V, S58R, Q65A
B33: D domain of SEQ ID NO: 395 (designed binder)
chain: MGSWVEFDQRLGAIWDRLVALGGSEAELAAFEKEIAAFESELQAYKGKGNPEVEHLRQGAAVIRDDLQAYRHN
B34: D domain of SEQ ID NO: 467 (designed binder)
chain: MGSWFYFKDDLADINYMLEALGGSEAELAMFEDDIAGFELTLLKYKGKGNPEVEALRKEAAAIRDELQAYRHN
B35: D domain of SEQ ID NO: 434 (designed binder)
chain: MGSWQEFTMRLDAIYNRLETLGGSEAELAAFEKEIAAFESELQAYKGKGNPEVEWLRQSAANIRSELQAYRHN
B36: D domain of SEQ ID NO: 426 (designed binder)
chain: MGSWWEFEERLWAIDYRLHALGGSEAELAAFEKEIAAFESELQAYKGKGNPEVEMLRSWAAEIRALLQAYRHN
B37: D domain of SEQ ID NO: 420 (designed binder)
chain: MGSWLEFMWRLDAIDERLWALGGSEAELAAFEKEIAAFESELQAYKGKGNPEVELLREMAAAIRDDLQAYRHN
B38: D domain of SEQ ID NO: 468 (designed binder)
chain: MGSWHFFKDDLAWIKNELEALGGSEAELAMFEDDIAMFETMLQSYKGKGNPEVEALRKEAAAIRDELQAYRHN
B39: D domain of SEQ ID NO: 469 (designed binder)
chain: B38 chain with F6W, D9T, W13D, N16E, M37E, T40E, M41F, S44M
B40: D domain of SEQ ID NO: 367 (designed binder)
chain: MGSWDEFAWRLDVIFARLGALGGSEAELAAFEKEIAAFESELQAYKGKGNPEVEELRKNAAQIRDGLQAYRHN
B41: D domain of SEQ ID NO: 366 (designed binder)
chain: MGSWEEFAQRLYAIEWRLYALGGSEAELAAFEKEIAAFESELQAYKGKGNPEVEVLRYVAAQIRYHLQAYRHN
B42: D domain of SEQ ID NO: 385 (designed binder)
chain: B41 chain with E5D, A8G, Q9R, V55K, Y58E, V59I, Q62V, Y65S, H66N
B43: D domain of SEQ ID NO: 399 (designed binder)
chain: MGSWVEFWDRLDAIEGRLWALGGSEAELAAFEKEIAAFESELQAYKGKGNPEVEDLRWLAAEIRADLQAYRHN
B44: D domain of SEQ ID NO: 432 (designed binder)
chain: B22 chain with E5F, D15E, T16W, V55E, N58S, D59T, E65R, P66Y
B45: D domain of SEQ ID NO: 409 (designed binder)
chain: B43 chain with V5Y, D9G, G16E, K48R, D55M, W58E, L59D, A65G, D66Q
B46: D domain of SEQ ID NO: 394 (designed binder)
chain: B15 chain with V5D, E9Q, E12I, D58E, D59E, N62V, H65K, W66Y
B47: D domain of SEQ ID NO: 431 (designed binder)
chain: B6 chain with F5S, W8E, G9H, K19F, E55D, E58S, H59E, A65E, Y66Q

This assay deals with T1, CD123. Briefly: ELISA. Also on record: unit not given here. (An ELISA detects its analyte on a solid surface through an enzyme-linked reagent.)
The molecule B1 showed an ELISA_avg of 7.2. In turn, B2 returned an ELISA_avg of 18.6. The value for B3 was 3.6. The value for B4 was 4; that for B5 was 3.9. Molecule B6 came in with an ELISA_avg of 4.9. Take B7: the ELISA_avg was 3.3. In the case of B8, the ELISA_avg came out at 3.9.

The molecule B9 showed an ELISA_avg of 3.6. B10: the ELISA_avg is 4.2. Molecule B11 displayed an ELISA_avg of 3. B12: the ELISA_avg came out at 5. Molecule B13 showed an ELISA_avg of 4. With B14, the ELISA_avg was 5.1.

The molecule B15 came in with an ELISA_avg of 3.8. Take B16: the ELISA_avg was 3.2. The value for B17 was 17; that for B18 was 4.1. With B19, the ELISA_avg was determined as 5.6.

As for B20, the ELISA_avg turned out to be 3.3. For B21 the value was 6.9. Take B22: the ELISA_avg stood at 6.8.

In turn, B23 displayed an ELISA_avg of 3.3. The value for B24 was 4.2; that for B25 was 16.1; that for B26 was 15.7.

B27 yielded an ELISA_avg of 17. In the case of B28, the ELISA_avg was found to be 13.1. As for B29, the ELISA_avg turned out to be 13. B30 yielded an ELISA_avg of 24.9.

Molecule B31 registered an ELISA_avg of 20.8. For B32, the ELISA_avg was found to be 13.6.

In the case of B33, the ELISA_avg came out at 5.3.

For B34, the ELISA_avg worked out at 3.7.

On to B35, for which the ELISA_avg stood at 13.7.

B36: the ELISA_avg was 4.1. On to B37, for which the ELISA_avg came out at 5.1. Molecule B38 yielded an ELISA_avg of 3.2. Regarding B39, the ELISA_avg came out at 3.5. In turn, B40 displayed an ELISA_avg of 4.6. The value for B41 was 16.9. The value for B42 was 5.8; that for B43 was 3.5; that for B44 was 3.4. For B45, the ELISA_avg turned out to be 5.4. Molecule B46 registered an ELISA_avg of 5.9. For B47 the value was 7.6.
